Data published in patent publication US20060024314A1, “Antibodies and cyclic peptides which bind CEA (carcinoembryonic antigens) and their use as cancer therapeutics” (priority 1998, published 2006).
One block for each molecule: values may come before it. Bridge positions count the residues as written; N and C are the ends.

Key:
CEA mutant Q80R (human) = CEA mutant Q80R (human) (UniProt P06731); assay: cell-based or functional assay
CEA mutant D82N (human) = CEA mutant D82N (human) (UniProt P06731); assay: cell-based or functional assay
[1] = target: CEA double mutant Q44R+I46V (human) (UniProt P06731); assay: cell-based or functional assay
[2] = test system: CEA-mediated intercellular adhesion; details: from references (29) and (16); cited from earlier work
[3] = target: T1, human carcinoembryonic antigen (CEA), wild type (human, UniProt P06731 35-685, GPI membrane anchor); assay: cell-based or functional assay
T1 sequence (looked up): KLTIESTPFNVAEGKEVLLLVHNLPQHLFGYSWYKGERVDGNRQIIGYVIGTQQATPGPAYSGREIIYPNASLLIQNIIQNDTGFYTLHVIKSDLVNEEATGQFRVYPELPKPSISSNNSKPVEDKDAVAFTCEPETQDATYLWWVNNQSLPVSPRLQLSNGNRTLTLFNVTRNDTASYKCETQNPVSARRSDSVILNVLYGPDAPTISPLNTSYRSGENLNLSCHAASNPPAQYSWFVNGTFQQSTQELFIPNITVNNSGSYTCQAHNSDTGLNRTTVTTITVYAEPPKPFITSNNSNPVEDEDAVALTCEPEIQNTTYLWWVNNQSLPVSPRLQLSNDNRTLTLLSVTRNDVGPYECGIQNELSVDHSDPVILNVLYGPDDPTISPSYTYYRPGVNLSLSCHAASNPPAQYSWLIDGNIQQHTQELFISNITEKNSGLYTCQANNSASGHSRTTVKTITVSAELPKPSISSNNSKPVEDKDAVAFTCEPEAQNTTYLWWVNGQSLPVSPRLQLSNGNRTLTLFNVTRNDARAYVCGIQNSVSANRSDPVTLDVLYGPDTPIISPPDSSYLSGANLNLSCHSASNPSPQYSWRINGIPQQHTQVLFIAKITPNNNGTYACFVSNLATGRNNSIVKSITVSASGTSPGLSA

- degree of differentiation of L6 transfectants (CEA mutant Q80R (human)): 81%
Molecule: CEA mutant Q80R (from UniProt P06731 35-702)

- % fusion of L6(CEA) cells (release of the myogenic differentiation block), peptide at 100 µM [3]: 18%
B1: cyclized peptide H-CGYSWYKC-OH (subdomain 1) (peptide)
peptide: H-CGYSWYKC-OH
modifications: disulfide 1-8
SMILES: NCCCC[C@@H]1NC(=O)[C@H](Cc2ccc(O)cc2)NC(=O)[C@H](Cc2c[nH]c3ccccc23)NC(=O)[C@H](CO)NC(=O)[C@H](Cc2ccc(O)cc2)NC(=O)CNC(=O)[C@@H](N)CSSC[C@@H](C(=O)O)NC1=O

- % fusion of L6(CEA) cells (release of the myogenic differentiation block), peptide at 100 µM [3]: 36%
B2: cyclized peptide H-CQNDTGC-OH (subdomain 3) (peptide)
peptide: H-CQNDTGC-OH
modifications: disulfide 1-7
SMILES: C[C@@H](O)[C@@H]1NC(=O)[C@H](CC(=O)O)NC(=O)[C@H](CC(N)=O)NC(=O)[C@H](CCC(N)=O)NC(=O)[C@@H](N)CSSC[C@@H](C(=O)O)NC(=O)CNC1=O

- % fusion of L6(CEA) cells (release of the myogenic differentiation block), peptide at 100 µM [3]: 28%
B3: cyclized peptide H-CGNRQIIC-OH (subdomain 2) (peptide)
peptide: H-CGNRQIIC-OH
modifications: disulfide 1-8
SMILES: CC[C@H](C)[C@@H]1NC(=O)[C@H](CCC(N)=O)NC(=O)[C@H](CCCNC(=N)N)NC(=O)[C@H](CC(N)=O)NC(=O)CNC(=O)[C@@H](N)CSSC[C@@H](C(=O)O)NC(=O)[C@H]([C@@H](C)CC)NC1=O

The remaining lines, values behind:

Molecule: CEA mutant D82N (from UniProt P06731 35-702)
- degree of differentiation of L6 transfectants (CEA mutant D82N (human)): 100%

Molecule: CEA double mutant Q44R+I46V (from UniProt P06731 35-702)
- degree of differentiation of L6 transfectants [1]: 100%

Molecule: H-CQNDTGC-OH (disulfide 1-7; SMILES C[C@@H](O)[C@@H]1NC(=O)[C@H](CC(=O)O)NC(=O)[C@H](CC(N)=O)NC(=O)[C@H](CCC(N)=O)NC(=O)[C@@H](N)CSSC[C@@H](C(=O)O)NC(=O)CNC1=O) [cyclized peptide QNDTG, cyclized peptide representing subdomain 3 of the CEA N domain]
- inhibition of CEA-mediated intercellular adhesion [2]: effective in inhibiting CEA-mediated intercellular adhesion
